Measurements as given in PMC10594996.

Columns and labels:
human IgG (human) = assay: SPR; BIAcore X100; Protein A immobilised on a CM5 chip (target 5000 RU); human or NHP IgG at 20 µg/ml captured on the test flow cell to 500 RU; various concentrations of recombinant human CD64 flowed at 10 µl/min; control flow cell with Protein A only; regeneration with 10 mM glycine pH 2.0
[1] = target: NHP IgG (rhesus macaque serum IgG) (rhesus macaque (Macaca mulatta)); assay: SPR; BIAcore X100; Protein A immobilised on a CM5 chip ([…]

“recombinant human CD64 receptor (from UniProt P12314 16-374)” showed a Kd (human IgG (human)) of 21.9 nM and a Kd [1] of 162 nM.
